Source: patent US20170275665

Target: T1, Marinomonas mediterranea (MMB-1) Cas2, purified with N-terminal 6xHis tag
T1 chain: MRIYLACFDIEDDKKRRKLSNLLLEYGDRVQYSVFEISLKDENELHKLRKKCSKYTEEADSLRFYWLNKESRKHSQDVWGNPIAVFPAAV

B1: Marinomonas mediterranea (MMB-1) RT-Cas1 fusion protein, wild type, purified with N-terminal maltose-binding protein tag (protein)
chain: MLNSPLIDAVLPLRSVVITLRWLSPSKTGFLHHAGLHAWVRFLAGSPEQFSDFIVVEPIENGHISYQAGDGYRFRITVLNGGESLLDTLFSSLKRLPESAANHPDIAGAFSDNLVLEKIEDTFEHHQVTQIEDLSVFDINALMLETAVWSRQRRFKVAFNTPARLVKPKPEDGTELKGQNRYCRDKSDLNWQLFTHRLTDTFINLFQSRTGERLQRQNWPEAQLHAGLAVWLNNSYTNKKEKKVKDASGMLAQMQIEIDDDFPADLLALLVLGQYIGMGQNRAFGMGQYQLQDAYGYCSYPRPQAAKSLLEKSLSDASLHQACQTMYPRQANFDSSDTDEEHHDAIDELLTKLYVSRERIFKREFTPSQLHSVEIEKPEGGTRLLSVPNWHDRTLQKAVTECLGNTLEHIWMKHSYGYRKGHSRLQARDQINQYIQQGYEWVLESDIESFFDSVNWLNLEQRLKLLLPNEPLVPLLMQWVSAAKQTEDEQTLARHNGLPQGAPISPILANLLLDDLDQDMIAKGHQIVRYADDFVLLFKSKAAAESALDDIITALKEHHLAINLEKTRIVEASQGFRYLGYLFVDGYAIETKREYRKEHAQLDKQLNASSLENEPSLQQEPAVQNEQSTLIGEREKLGTLLIIAGDIAMLSSEKQRLIVEQYDELHTYPWATLSSVLLVGPHHITTPALKSAMFHNVPVHFASQYGRYQGVSAGAAPSVFGADFWLLQAQYLQQETNALNISQVLIQARIEGIRAVISRREKDAPELNKIQRLDEKRLRAETLDQLRGYEGQASKQLWAFFQRILEEDWGFTGRNRRPPKDPINALLSLGYTYLYSLVDSVNRTVGLYPWQGALHQRHGYHHTLASDLMEPWRYLVEHVVLTLINRHQIHKDDFVIKENGCEMSSGARKTLLKELLVQLTKVPKGGNSLLTEMSNQSYRLALSCKMQQRFIAWSPKR
With B1 the “cleavage of the CRISPR DNA substrate with ligation of a dsDNA oligonucleotide (in vitro cleavage-ligation assay, gel)” value was “products derived from cleavage of the CRISPR substrate were readily detected in the presence of RT-Cas1 and Cas2 together but not in the presence of either protein alone”.
